Starred links: 1 amine or outer side, 2 acyl side, 3 side chain; linkers in the order of their positions; H or OH if unused. Non-standard residues stand in square brackets, D forms with d. Groups on a side chain read outwards from the residue. No end group written: not given here. *: point of attachment. C18 diacid = O=C(O)CCCCCCCCCCCCCCCCC(=O)*; γGlu = O=C(O)[C@H](CCC(=O)[*:2])N[*:1]; Palmitoyl = CCCCCCCCCCCCCCCC(=O)*; AEEA = NCCOCCOCC(=O)O; Aib = CC(C)(N)C(=O)O

This test has as its target human corticotropin-releasing factor 2α (CRF2 α receptor) (human), Q13324. The test can be described thus: cell-based or functional assay.

Sequence of human corticotropin-releasing factor 2α (CRF2 α receptor) (human), Q13324 (Q13324 20-411): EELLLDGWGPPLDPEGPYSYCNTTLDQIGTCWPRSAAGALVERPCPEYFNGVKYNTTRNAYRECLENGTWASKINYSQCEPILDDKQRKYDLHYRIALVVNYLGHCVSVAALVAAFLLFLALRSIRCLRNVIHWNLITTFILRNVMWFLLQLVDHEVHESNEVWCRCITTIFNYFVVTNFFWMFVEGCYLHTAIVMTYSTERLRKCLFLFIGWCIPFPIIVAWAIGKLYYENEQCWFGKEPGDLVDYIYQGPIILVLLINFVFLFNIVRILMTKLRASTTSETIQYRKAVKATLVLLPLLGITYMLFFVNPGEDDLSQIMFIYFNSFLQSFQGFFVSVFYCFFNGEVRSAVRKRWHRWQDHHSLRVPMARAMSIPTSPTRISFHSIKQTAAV

B1: SEQ ID NO: 18 (peptide)
peptide: IVLSLD[dV]PTKLK([γGlu-Palmitoyl])QKLLKQERQRKEREQAEKNKRILERV-NH2
modifications: N-terminus assumed
SMILES: CCCCCCCCCCCCCCCC(=O)N[C@@H](CCC(=O)NCCCC[C@H](NC(=O)[C@H](CC(C)C)NC(=O)[C@H](CCCCN)NC(=O)[C@@H](NC(=O)[C@@H]1CCCN1C(=O)[C@H](NC(=O)[C@H](CC(=O)O)NC(=O)[C@H](CC(C)C)NC(=O)[C@H](CO)NC(=O)[C@H](CC(C)C)NC(=O)[C@@H](NC(=O)[C@@H](N)[C@@H](C)CC)C(C)C)C(C)C)[C@@H](C)O)C(=O)N[C@@H](CCC(N)=O)C(=O)N[C@@H](CCCCN)C(=O)N[C@@H](CC(C)C)C(=O)N[C@@H](CC(C)C)C(=O)N[C@@H](CCCCN)C(=O)N[C@@H](CCC(N)=O)C(=O)N[C@@H](CCC(=O)O)C(=O)N[C@@H](CCCNC(=N)N)C(=O)N[C@@H](CCC(N)=O)C(=O)N[C@@H](CCCNC(=N)N)C(=O)N[C@@H](CCCCN)C(=O)N[C@@H](CCC(=O)O)C(=O)N[C@@H](CCCNC(=N)N)C(=O)N[C@@H](CCC(=O)O)C(=O)N[C@@H](CCC(N)=O)C(=O)N[C@@H](C)C(=O)N[C@@H](CCC(=O)O)C(=O)N[C@@H](CCCCN)C(=O)N[C@@H](CC(N)=O)C(=O)N[C@@H](CCCCN)C(=O)N[C@@H](CCCNC(=N)N)C(=O)N[C@H](C(=O)N[C@@H](CC(C)C)C(=O)N[C@@H](CCC(=O)O)C(=O)N[C@@H](CCCNC(=N)N)C(=O)N[C@H](C(N)=O)C(C)C)[C@@H](C)CC)C(=O)O
In turn, B1 yielded an EC50 [nM], 0% HSA of 0.03 nM.

B2: SEQ ID NO: 164 (peptide)
peptide: Ac-IVLSLD[dV]PIGLK([AEEA-AEEA-γGlu-C18 diacid])QILLEQERQK[Aib]QREQAEKNKQILEQV-NH2
SMILES: CC[C@H](C)[C@H](NC(C)=O)C(=O)N[C@H](C(=O)N[C@@H](CC(C)C)C(=O)N[C@@H](CO)C(=O)N[C@@H](CC(C)C)C(=O)N[C@@H](CC(=O)O)C(=O)N[C@@H](C(=O)N1CCC[C@H]1C(=O)N[C@H](C(=O)NCC(=O)N[C@@H](CC(C)C)C(=O)N[C@@H](CCCCNC(=O)COCCOCCNC(=O)COCCOCCNC(=O)CC[C@H](NC(=O)CCCCCCCCCCCCCCCCC(=O)O)C(=O)O)C(=O)N[C@@H](CCC(N)=O)C(=O)N[C@H](C(=O)N[C@@H](CC(C)C)C(=O)N[C@@H](CC(C)C)C(=O)N[C@@H](CCC(=O)O)C(=O)N[C@@H](CCC(N)=O)C(=O)N[C@@H](CCC(=O)O)C(=O)N[C@@H](CCCNC(=N)N)C(=O)N[C@@H](CCC(N)=O)C(=O)N[C@@H](CCCCN)C(=O)NC(C)(C)C(=O)N[C@@H](CCC(N)=O)C(=O)N[C@@H](CCCNC(=N)N)C(=O)N[C@@H](CCC(=O)O)C(=O)N[C@@H](CCC(N)=O)C(=O)N[C@@H](C)C(=O)N[C@@H](CCC(=O)O)C(=O)N[C@@H](CCCCN)C(=O)N[C@@H](CC(N)=O)C(=O)N[C@@H](CCCCN)C(=O)N[C@@H](CCC(N)=O)C(=O)N[C@H](C(=O)N[C@@H](CC(C)C)C(=O)N[C@@H](CCC(=O)O)C(=O)N[C@@H](CCC(N)=O)C(=O)N[C@H](C(N)=O)C(C)C)[C@@H](C)CC)[C@@H](C)CC)[C@@H](C)CC)C(C)C)C(C)C
The molecule B2 yielded an EC50 [nM], 0% HSA of 0.69 nM and an EC50 [nM], 0.1% HSA of 10.1 nM.

B3: SEQ ID NO: 161 (peptide)
peptide: Ac-IVLSLD[dV]PIKLK([AEEA-AEEA-γGlu-C18 diacid])QILLEQERQE[Aib]EREQAEKNEQILEQV-NH2
SMILES: CC[C@H](C)[C@H](NC(C)=O)C(=O)N[C@H](C(=O)N[C@@H](CC(C)C)C(=O)N[C@@H](CO)C(=O)N[C@@H](CC(C)C)C(=O)N[C@@H](CC(=O)O)C(=O)N[C@@H](C(=O)N1CCC[C@H]1C(=O)N[C@H](C(=O)N[C@@H](CCCCN)C(=O)N[C@@H](CC(C)C)C(=O)N[C@@H](CCCCNC(=O)COCCOCCNC(=O)COCCOCCNC(=O)CC[C@H](NC(=O)CCCCCCCCCCCCCCCCC(=O)O)C(=O)O)C(=O)N[C@@H](CCC(N)=O)C(=O)N[C@H](C(=O)N[C@@H](CC(C)C)C(=O)N[C@@H](CC(C)C)C(=O)N[C@@H](CCC(=O)O)C(=O)N[C@@H](CCC(N)=O)C(=O)N[C@@H](CCC(=O)O)C(=O)N[C@@H](CCCNC(=N)N)C(=O)N[C@@H](CCC(N)=O)C(=O)N[C@@H](CCC(=O)O)C(=O)NC(C)(C)C(=O)N[C@@H](CCC(=O)O)C(=O)N[C@@H](CCCNC(=N)N)C(=O)N[C@@H](CCC(=O)O)C(=O)N[C@@H](CCC(N)=O)C(=O)N[C@@H](C)C(=O)N[C@@H](CCC(=O)O)C(=O)N[C@@H](CCCCN)C(=O)N[C@@H](CC(N)=O)C(=O)N[C@@H](CCC(=O)O)C(=O)N[C@@H](CCC(N)=O)C(=O)N[C@H](C(=O)N[C@@H](CC(C)C)C(=O)N[C@@H](CCC(=O)O)C(=O)N[C@@H](CCC(N)=O)C(=O)N[C@H](C(N)=O)C(C)C)[C@@H](C)CC)[C@@H](C)CC)[C@@H](C)CC)C(C)C)C(C)C
For B3, the EC50 [nM], 0% HSA turned out to be 36 nM and the EC50 [nM], 0.1% HSA was determined as 977 nM.

B4: SEQ ID NO: 19 (peptide)
peptide: IVLSLD[dV]PTKLK([γGlu-Palmitoyl])QKLLKQERQR[Aib]EREQAEKNKRILERV-NH2
modifications: N-terminus assumed
SMILES: CCCCCCCCCCCCCCCC(=O)N[C@@H](CCC(=O)NCCCC[C@H](NC(=O)[C@H](CC(C)C)NC(=O)[C@H](CCCCN)NC(=O)[C@@H](NC(=O)[C@@H]1CCCN1C(=O)[C@H](NC(=O)[C@H](CC(=O)O)NC(=O)[C@H](CC(C)C)NC(=O)[C@H](CO)NC(=O)[C@H](CC(C)C)NC(=O)[C@@H](NC(=O)[C@@H](N)[C@@H](C)CC)C(C)C)C(C)C)[C@@H](C)O)C(=O)N[C@@H](CCC(N)=O)C(=O)N[C@@H](CCCCN)C(=O)N[C@@H](CC(C)C)C(=O)N[C@@H](CC(C)C)C(=O)N[C@@H](CCCCN)C(=O)N[C@@H](CCC(N)=O)C(=O)N[C@@H](CCC(=O)O)C(=O)N[C@@H](CCCNC(=N)N)C(=O)N[C@@H](CCC(N)=O)C(=O)N[C@@H](CCCNC(=N)N)C(=O)NC(C)(C)C(=O)N[C@@H](CCC(=O)O)C(=O)N[C@@H](CCCNC(=N)N)C(=O)N[C@@H](CCC(=O)O)C(=O)N[C@@H](CCC(N)=O)C(=O)N[C@@H](C)C(=O)N[C@@H](CCC(=O)O)C(=O)N[C@@H](CCCCN)C(=O)N[C@@H](CC(N)=O)C(=O)N[C@@H](CCCCN)C(=O)N[C@@H](CCCNC(=N)N)C(=O)N[C@H](C(=O)N[C@@H](CC(C)C)C(=O)N[C@@H](CCC(=O)O)C(=O)N[C@@H](CCCNC(=N)N)C(=O)N[C@H](C(N)=O)C(C)C)[C@@H](C)CC)C(=O)O
As for B4, the EC50 [nM], 0% HSA came to 0.01 nM.

B5: SEQ ID NO: 165 (peptide)
peptide: Ac-IVLSLD[dV]PIKLK([AEEA-AEEA-γGlu-C18 diacid])QILLEQARQK[Aib]QREQAEKNEQILEQV-NH2
SMILES: CC[C@H](C)[C@H](NC(C)=O)C(=O)N[C@H](C(=O)N[C@@H](CC(C)C)C(=O)N[C@@H](CO)C(=O)N[C@@H](CC(C)C)C(=O)N[C@@H](CC(=O)O)C(=O)N[C@@H](C(=O)N1CCC[C@H]1C(=O)N[C@H](C(=O)N[C@@H](CCCCN)C(=O)N[C@@H](CC(C)C)C(=O)N[C@@H](CCCCNC(=O)COCCOCCNC(=O)COCCOCCNC(=O)CC[C@H](NC(=O)CCCCCCCCCCCCCCCCC(=O)O)C(=O)O)C(=O)N[C@@H](CCC(N)=O)C(=O)N[C@H](C(=O)N[C@@H](CC(C)C)C(=O)N[C@@H](CC(C)C)C(=O)N[C@@H](CCC(=O)O)C(=O)N[C@@H](CCC(N)=O)C(=O)N[C@@H](C)C(=O)N[C@@H](CCCNC(=N)N)C(=O)N[C@@H](CCC(N)=O)C(=O)N[C@@H](CCCCN)C(=O)NC(C)(C)C(=O)N[C@@H](CCC(N)=O)C(=O)N[C@@H](CCCNC(=N)N)C(=O)N[C@@H](CCC(=O)O)C(=O)N[C@@H](CCC(N)=O)C(=O)N[C@@H](C)C(=O)N[C@@H](CCC(=O)O)C(=O)N[C@@H](CCCCN)C(=O)N[C@@H](CC(N)=O)C(=O)N[C@@H](CCC(=O)O)C(=O)N[C@@H](CCC(N)=O)C(=O)N[C@H](C(=O)N[C@@H](CC(C)C)C(=O)N[C@@H](CCC(=O)O)C(=O)N[C@@H](CCC(N)=O)C(=O)N[C@H](C(N)=O)C(C)C)[C@@H](C)CC)[C@@H](C)CC)[C@@H](C)CC)C(C)C)C(C)C
B5 displayed an EC50 [nM], 0% HSA of 0.28 nM and an EC50 [nM], 0.1% HSA of 5.06 nM.

B6: SEQ ID NO: 162 (peptide)
peptide: Ac-IVLSLD[dV]PIELK([AEEA-AEEA-γGlu-C18 diacid])QILLEQERQK[Aib]QREQAEKNKQILEQV-NH2
SMILES: CC[C@H](C)[C@H](NC(C)=O)C(=O)N[C@H](C(=O)N[C@@H](CC(C)C)C(=O)N[C@@H](CO)C(=O)N[C@@H](CC(C)C)C(=O)N[C@@H](CC(=O)O)C(=O)N[C@@H](C(=O)N1CCC[C@H]1C(=O)N[C@H](C(=O)N[C@@H](CCC(=O)O)C(=O)N[C@@H](CC(C)C)C(=O)N[C@@H](CCCCNC(=O)COCCOCCNC(=O)COCCOCCNC(=O)CC[C@H](NC(=O)CCCCCCCCCCCCCCCCC(=O)O)C(=O)O)C(=O)N[C@@H](CCC(N)=O)C(=O)N[C@H](C(=O)N[C@@H](CC(C)C)C(=O)N[C@@H](CC(C)C)C(=O)N[C@@H](CCC(=O)O)C(=O)N[C@@H](CCC(N)=O)C(=O)N[C@@H](CCC(=O)O)C(=O)N[C@@H](CCCNC(=N)N)C(=O)N[C@@H](CCC(N)=O)C(=O)N[C@@H](CCCCN)C(=O)NC(C)(C)C(=O)N[C@@H](CCC(N)=O)C(=O)N[C@@H](CCCNC(=N)N)C(=O)N[C@@H](CCC(=O)O)C(=O)N[C@@H](CCC(N)=O)C(=O)N[C@@H](C)C(=O)N[C@@H](CCC(=O)O)C(=O)N[C@@H](CCCCN)C(=O)N[C@@H](CC(N)=O)C(=O)N[C@@H](CCCCN)C(=O)N[C@@H](CCC(N)=O)C(=O)N[C@H](C(=O)N[C@@H](CC(C)C)C(=O)N[C@@H](CCC(=O)O)C(=O)N[C@@H](CCC(N)=O)C(=O)N[C@H](C(N)=O)C(C)C)[C@@H](C)CC)[C@@H](C)CC)[C@@H](C)CC)C(C)C)C(C)C
On to B6, for which the EC50 [nM], 0% HSA is 2 nM and the EC50 [nM], 0.1% HSA turned out to be 30.5 nM.

B7: SEQ ID NO: 163 (peptide)
peptide: Ac-IVLSLD[dV]PIHLK([AEEA-AEEA-γGlu-C18 diacid])QILLEQERQK[Aib]QREQAEKNKQILEQV-NH2
The molecule B7 gave an EC50 [nM], 0% HSA of 0.24 nM and an EC50 [nM], 0.1% HSA of 3.91 nM.
